For assay [1], the system named is Human umbilical vein endothelial cells (HUVECS). As to the kind of experiment: Inflammatory response of endothelial cells to rsCD154 (MCP-1 ELISA, tissue factor clotting assay, ICAM-1/E-Selectin FACS). In kind it is cell-based. How it is done: Inflammation in the present invention study was measured by the upregulation of tissue factor on cultured endothelial cells. Endothelial cells were the cells selected for study as this is the most abundant cell exposed to blood and is known to express […], the ligand for CD154 (Yellin, MJ, J. Exp Med, 182: 1857(1995)).
Human umbilical vein endothelial cells (HUVECS) purchased from Clonetics Inc. were cultured with M199 containing 20% FBS, 50 μg/ml endothelial mitogen (Biomedical technologies Inc.) 2 mM glutamine, 1 mM Sodium Pyruvate, 1× Nonessential amino acids, 100 U/ml of penicillin/streptomycin and 100 μg/ml heparin. HUVECS (passage 3-5) grown in 6 well dishes or 96 well tissue culture plates coated with 0.75% bovine skin gelatin (Sigma chemicals) were incubated without and with different concentrations (100 ng-10 μg/ml) of rsCD 154 in the presence of TRAP-1 (monoclonal antibody against hCD154, BD Pharmingen) or MOPC-21 (mouse IgG, Sigma) for 4 hrs at 37° C. in Tyrode's-Hepes buffer (12 mM NaHCO3, 138 mM NaCl, 5.5 mM glucose, 2.9 mM KCl, 10 mM Hepes, 1 mM CaCl2, 1 mM MgCl2, pH 7.4). […]
The supernatants were collected and the concentrations of MCP-1 determined by ELISA. Expression of tissue factor was determined by clotting assays performed with the HUVECS in the 96 well plates. […] The expression of ICAM-1 and E-Selectin was determined by FACS analysis (FACSort, Beckton Dickinson) following release of the HUVECS from the dishes. HUVECS, when exposed to 2 μg/ml rsCD154, secreted 3 fold more MCP-1 after 4 hrs and this increase was blocked by anti-CD154 antibody, but not by an isotype matched control antibody. As measured by clotting assay there was 50% reduction in clotting time, which was reversed in the presence of TRAP-1.

The next assay concerns CD154−/− mice. As to the kind of experiment: Intravital microscopy thrombosis model of the mouse mesentery (FeCl3-injured arteriole). In kind it is in vivo. The conditions noted are these: single dose 26 μg/mouse, 5 to 10 minutes before arteriole injury. How it is done:
The role of CD154 in thrombus formation was investigated using a model that compares wild type (WT) mice with CD154−/− mice that have impaired thrombosis. […] It was observed that the occlusion time is approximately twice as long in the CD 154−/− mouse as in wild type, apart from any other treatment effect.
In this example, the recombinant form of the soluble CD154 was infused into the CD154−/− mouse. Thrombus formation was evaluated using the model as described below.
To perform the investigation, the intravital microscopy thrombosis model of the mouse mesentery was used (Denis et al., PNAS, 95:9524-9, (1998)). The interactions of fluorescently-labeled platelets with a FeCl3-injured arteriolar vessel wall (shear rate ˜1300 s^−1) were analyzed. […]
Immediately after infusion of fluorescent platelets into mice of matching genotypes (4- to 5-weeks old C57BL6J and CD154−/−), animals were anesthetized with 2.5% tribromoethanol (0.15 mL/10 g). […] The shear rate (1000 to 1300 s^−1) was calculated using an optical Doppler velocimeter using known methods (see, e.g., Blood, November 2000). […]
Resting blood vessel was recorded for 2 minutes, then Ferric Chloride (30 μl of a 250-mM solution) was superfused, and video recording was resumed for another 40 minutes, or until full occlusion occurred and lasted for more than 10 seconds. […]

Consider one molecule from patent US20040072750A1, “Compounds and methods for the modulation of CD154” (priority 2001, published 2004).

B1: rsCD154: bacterially expressed recombinant human soluble CD154 (108 a.a-261 a.a.), 18-kDa protein (protein)
chain: ENSFEMQKGDQNPQIAAHVISEASSKTTSVLQWAEKGYYTMSNNLVTLENGKQLTVKRQGLYYIYAQVTFCSNREASSQAPFIASLCLKSPGRFERILLRAANTHSSAKPCGQQSIHLGGVFELQPGASVFVNVTDPSQVSHGTGFTSFGLLKL
For B1, in assay [1] (2 μg/ml of rsCD154, FACS), the “increased expression of ICAM-1 and E-Selectin” value turned out to be 2 fold. In assay [1] (2 μg/ml rsCD154, 4 hrs), the “MCP-1 secretion by HUVECS” value is recorded as 3 fold. Also, the “reduction in clotting time (tissue factor clotting assay)” value in assay [1] (HUVECS exposed to rsCD154) was determined as 50%. Besides, the “thrombotic process (occlusion) in CD154−/− mice” value with CD154−/− mice was “reconstitute a normal thrombotic process”.
